Measured values: the domain aggregation screens of Martell et al. (2025)

Assay: soluble fraction after stress (log2 fold change); higher = more stays soluble; pooled small domains, quantitative proteomics
Conditions: stress: pH 4
Procedure, shortened: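 Aggregation propensity is estimated from the fold change in each domain's soluble amount after acid stress. Pooled small-domain libraries were stressed at pH 4, and higher log2 values mean more stayed soluble.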

Sequence	soluble fraction (log2)
HMAELAKAKLDAAVQVALLKAGALDTDYLAYKLQGMDGVALDDKGSLTGWDTTLETLKSQYPTQFA	-0.388
HMAEPTLNERLREALSDPAKLKIAKAIKAKYPIITARDIDTFLNMHEKDIENGADPMDEFEEFFHANY	-0.132
HMAEPYDEDKVMEHLYIKGKDVVIAHLKHLKEHNEHVWLKKGVEWMQKNQDRLGFDMMEVIYVVHNH	-1.18
HMAEQEELDAIRPDLDGQEIMDILGIKPGREVGAARNFLLELRLDEGPLGYDEAVSRLLTWWAERT	-1.2
HMAETLLWADAAQEGLNRIVAAQPILVRISAAKRLRDASEQAAKAAGVSTVEIGHVQHASESLQFGDA	-0.0823
HMAETLRLVGATNLNTLARARHPDDLAARNEFRRAIAQANPALFAGKSKVGSVSLPAGTVLALPPEV	≥ 0.43
HMAEVDDESIKLYDGGYQSNTTKSRLNALLSEFGYDTEHVFQKQFEWFISIFDLTEKAMRTVPFSNGMRL	-0.257
HMAEVGDFTLAELIKVLFNEAGVLKAPVELRNDNTGGLQYRVGAYTDSETGWETIASIADLKGA	-1.74
HMAEWLLVQLTNGNWFYGEVIEKTDATIVLNTDILGKVSIQKLDIRRSISGPLTAAKRQEIEDSERAKD	-0.341
HMAFDDAHYKDMITSYLKKFKKGNRSEIENLIIPKLSEVLVEKQKKDKVKNLLQALRKDNQIRLKGKYWYL	0.196
HMAFIEADIGKRIKSLRNKKRITLESLAAETGFTKGYLSKVETSEKAPPVSTLGSIARALGVSISTLLGE	0.144
HMAFKDDDVQKAYDRYMDRYGELSVLYSDNGLKVDDDLFYKNNIPPNGKFTKEFFDELYELVNMEFINNY	-0.538
HMAFRLPNGYGTIRRLTGNRRKPYVALVNPTQVFDDEKGTSHYKYDLLGTFAEKIDAYNAVMQYHKSPGGL	-0.223
HMAGAPANLAARLREQILQGAYHDGQRLPAERHLAAEHGVSRGTVREALRLLEQGALLTRKRGSGSYVTYP	0.006
HMAGDVVVEVVGKVRDPQVVTLPKGSRVQDALEAAGGVKPGVNTTDQNLARLLVDGEQIRIGLSS	0.0302
HMAGFGDSLEKMSDAVEALKLLMSTEDARNDQNIQKIARELKDVFNKYRTHLRKSYPDQYDRIKSTL	-0.62
HMAGGNHPTRLELLDSAAHIAERDGTSALTVDAITKSAGHAKGTFYIHFDDRADLLVEMHRR	-0.323
HMAGIPIHMSQLKQIILLLSQGYPIKGIARETGVSRNTIKGYLQTLTSQDLNVTDALKLENIQLEYLLRSP	-0.239

Sequence	soluble fraction (log2)
HMAGLYSLLLVELPMERLPEDLPAIKAAWLKTGDTEAFKVALQAMSSRGWTIAVPGKHRDTQMTQL	-0.235
HMAGPVLTPEEAEVLRILADHGEMTVDNISAEGKMSAAVVLRGLGVLSAYGLVAPGGPGRWRSE	0.00808
HMAGTDLSERESEIAMLLLKGYPYKLIASRLYISESTVKSHVQNIYGKLGIHSRTELIEQFSAS	-0.966
HMAGTPAIVKWFNPTKGFGFVTPKEAGSDALLHASVLAKRGKRWLQEGTLVEVLIEEGPKGLVVSELLTIE	-0.659
HMAGTRRFELVEGSSSKFWEVTVADGSYTVTYGRIGTAGGSKTTESATAEADAEKLVREKLKKGYQEAGAA	0.128
HMAGTRVWSENGQLYVTAAVSGRANVYNVLGKLNRSLTFSAGETKSVSVPAGIYVVSLNNGKAYKVAV	0.0936
HMAGWIPVEERLPDDLTNPITRDAYVYPVTVDLGDVTDIRYYSFWRGHWYNQGPETMDDLVIAWMLLPEPY	-0.178
HMAHESYVKEQLLLSLTNHEDPIMQISLIEQLTKMHERNIIHELEKLTVDVQTNEEVKVQAYASLLILS	-0.962
HMAHKYYSIMRPVSIGTFPDNGTILGIVNFDTRQMVESIGKMAWGYINYGKPLTEKQISDYELVAE	0.361
HMAHLNYQTVDINALIRHSLQLVSQDAQSRGIALQFTPRPELTTISADPDRLNQVLLNLYLNAMQD	-0.205
HMAHLSPNDAARLVGVSRPLLNQILDEGRITFFETAGGHRKIKLAAVLAYIKERDEVAAQLAAART	-0.514
HMAHSDEAWSVARRVARELDKILDGAGPRRTALVRAAAELRLSTRQIYNLLARYRADRTVTSLLPRR	-0.353
HMAHSWEAIRVKLQQIIDEEDKTKPLNDDQIKEKLAEAGIPNLARRTVAKYRKLLNIPTARFRKR	0.208
HMAIDINKIYSEIKKKIPNQDNHIKEILSIIWRDFNNYQNIKSRSILINGEKSSPKKEIFNIIEDNINIPV	0.00852
HMAIDPLLDKGYEQYDKGEFTEAVKSFNRAIEIDPKNAEAHFLRAMTYQGLALSKLAVADLEKAIV	-0.127
HMAIGDYYINASALNVRSGEGTNYRIIGALPQGQKVQVISENSGWSKINYNGQTGYIGTRYLSKTPV	0.22
HMAIHTSVTEHGEHDLTVRMEMEQVFAIEMAVVSHEQATMLERTFKANAEAIYQKLLGVMTQEYP	-0.841
